Square brackets hold non-standard residues; d marks the D form. Ends that are not written are not given here. * marks the point of attachment. Trp(6-Br) = N[C@@H](Cc1c[nH]c2cc(Br)ccc12)C(=O)O; Trp(6-Cl) = N[C@@H](Cc1c[nH]c2cc(Cl)ccc12)C(=O)O; Trp(6-F) = N[C@@H](Cc1c[nH]c2cc(F)ccc12)C(=O)O; Trp(6-Me) = Cc1ccc2c(C[C@H](N)C(=O)O)c[nH]c2c1; hArg = N=C(N)NCCCC[C@H](N)C(=O)O; Pentanoyl = CCCCC(=O)*
What was measured:
[1] = biological target: T1, His-tagged, full-length PCSK9 (human, UniProt Q8NBP7 31-692); assay: TR-FRET competition; His-PCSK9, competitor EGF(A)-Fc
T1 construct: The secreted protein is autocleaved into a prodomain and a catalytic/Cys-rich chain that starts at S153; also called His-PCSK9
T1 sequence (Q8NBP7 other isoform, or with tags, fused parts or gaps limits assumed): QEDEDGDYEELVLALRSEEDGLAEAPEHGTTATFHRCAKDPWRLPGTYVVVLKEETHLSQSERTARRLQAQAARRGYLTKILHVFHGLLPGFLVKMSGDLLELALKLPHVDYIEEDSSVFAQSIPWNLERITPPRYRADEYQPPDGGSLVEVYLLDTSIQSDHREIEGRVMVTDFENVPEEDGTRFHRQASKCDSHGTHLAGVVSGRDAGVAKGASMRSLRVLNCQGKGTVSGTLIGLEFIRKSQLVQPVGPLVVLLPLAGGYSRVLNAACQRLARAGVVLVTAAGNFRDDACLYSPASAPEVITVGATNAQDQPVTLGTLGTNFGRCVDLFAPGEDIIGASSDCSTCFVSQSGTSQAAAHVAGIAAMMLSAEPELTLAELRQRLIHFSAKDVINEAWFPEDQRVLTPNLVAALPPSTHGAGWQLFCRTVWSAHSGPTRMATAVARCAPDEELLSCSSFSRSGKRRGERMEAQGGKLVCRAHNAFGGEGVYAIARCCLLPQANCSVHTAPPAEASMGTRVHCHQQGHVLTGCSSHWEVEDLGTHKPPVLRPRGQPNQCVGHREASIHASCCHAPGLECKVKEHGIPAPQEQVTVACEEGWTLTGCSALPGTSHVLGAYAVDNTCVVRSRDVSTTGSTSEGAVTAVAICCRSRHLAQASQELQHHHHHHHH

His-tagged PCSK9Δhelix = biological target: T2, His-tagged PCSK9Δhelix (human, UniProt Q8NBP7 31-152; Q8NBP7 168-692); assay: TR-FRET competition; His-PCSK9Δhelix, competitor Ab20
T2 construct: Construct M1-Q692 with engineered TEV site, cut by TEV protease; new N-terminus of the catalytic domain is S-A168; also called His-PCSK9Δhelix
T2 sequence (Q8NBP7 31-152, stated change not applied, chain 1 of 2): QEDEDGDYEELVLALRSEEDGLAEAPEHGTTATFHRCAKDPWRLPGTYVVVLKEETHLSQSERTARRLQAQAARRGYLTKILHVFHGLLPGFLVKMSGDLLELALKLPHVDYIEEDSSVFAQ
T2 sequence (Q8NBP7 other isoform, or with tags, fused parts or gaps mutant, chain 2 of 2): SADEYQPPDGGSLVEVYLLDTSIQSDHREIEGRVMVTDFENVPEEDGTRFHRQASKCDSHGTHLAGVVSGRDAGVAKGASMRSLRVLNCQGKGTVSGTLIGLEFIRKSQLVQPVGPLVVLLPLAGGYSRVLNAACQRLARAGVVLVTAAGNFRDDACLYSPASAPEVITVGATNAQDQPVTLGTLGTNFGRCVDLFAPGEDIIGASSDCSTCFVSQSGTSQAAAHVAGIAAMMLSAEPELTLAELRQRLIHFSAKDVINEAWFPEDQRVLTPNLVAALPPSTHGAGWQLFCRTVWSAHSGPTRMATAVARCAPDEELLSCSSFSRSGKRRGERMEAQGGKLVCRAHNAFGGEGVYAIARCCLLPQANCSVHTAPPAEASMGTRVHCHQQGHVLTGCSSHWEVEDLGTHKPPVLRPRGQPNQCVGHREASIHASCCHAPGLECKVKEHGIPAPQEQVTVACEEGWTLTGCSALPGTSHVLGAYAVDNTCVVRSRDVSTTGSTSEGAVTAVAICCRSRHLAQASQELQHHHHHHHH
Procedure: Signal generation in the PCSK9 binding assays was dependent upon the binding interaction to bring into close proximity the His-tag on the PCSK9 and the Fc-tag on the ligand. Anti-His-APC was bound to the His-tag, and anti-Fc-europium was bound to the Fc-tag.
Compounds were solubilized and dilutions were prepared in DMSO. […] The plate was centrifuged to mix the well contents and allowed to incubate for 30 min. […] The normalized TR-FRET ratios were plotted as a function of the compound concentrations, and the IC₅₀ values were determined using a 4-parameter logistic regression.

Binder | IC50 [1] | IC50 (His-tagged PCSK9Δhelix)
WNLVRIGLLR (also: further groups not given here, Structure printed only as a drawing) [Compound 136] | ≥ 50 µM | 9 µM
WNLVRIGLLR (also: further groups not given here, Structure printed only as a drawing) [Compound 135] | ≥ 50 µM | 10 µM
WNLVRIGLLR (also: further groups not given here, Structure printed only as a drawing) [Compound 138] | 48 µM | 4.9 µM
WNLVRIGLLR (also: further groups not given here, Structure printed only as a drawing) [Compound 143] | ≥ 50 µM | 23 µM
WNLVRIGLLR (also: further groups not given here, Structure printed only as a drawing) [Compound 134] | ≥ 50 µM | 4.2 µM
WNLVRIGLLR (also: further groups not given here, Structure printed only as a drawing) [Compound 145] | 7.3 µM | 2.2 µM
WNLVRIGLLR (also: further groups not given here, Structure printed only as a drawing) [Compound 141] | ≥ 50 µM | 36 µM
WNLVRIGLLR (also: further groups not given here, Structure printed only as a drawing) [Compound 140] | ≥ 50 µM | 26 µM
WNLVRIGLLR (also: further groups not given here, Structure printed only as a drawing) [Compound 144] | 9.7 µM | 4 µM
Ac-DSYPGWNLVRIGLLR-NH2 [Compound 155] | 11 µM | 50 µM
WNLVRIGLLR (also: further groups not given here, Structure printed only as a drawing) [Compound 142] | ≥ 50 µM | 15 µM
WNLVRIGLLR (also: further groups not given here, Structure printed only as a drawing) [Compound 146] | 11 µM | 1.7 µM
WNLVRIGLLR (also: further groups not given here, Structure printed only as a drawing) [Compound 139] | ≥ 50 µM | 19 µM
WNLVRIGLLR (also: further groups not given here, Structure printed only as a drawing) [Compound 137] | ≥ 50 µM | 6.7 µM

Next, values leading:

IC50 [1] | IC50 (His-tagged PCSK9Δhelix) | Binder
≥ 50 µM | 12 µM | Ac-DLMPWNLKRIGLLR-NH2 [Compound 158]
≥ 50 µM | 19 µM | Ac-DLMPWNLVRIGLPR-NH2 [Compound 160]
11 µM | 50 µM | Ac-SFAFPGWNLVRIGLLR-NH2 [Compound 154]
≥ 50 µM | 6.2 µM | Pentanoyl-[Trp(6-F)]NLVRIGLTR-NH2 (SMILES CCCCC(=O)N[C@@H](Cc1c[nH]c2cc(F)ccc12)C(=O)N[C@@H](CC(N)=O)C(=O)N[C@@H](CC(C)C)C(=O)N[C@H](C(=O)N[C@@H](CCCNC(=N)N)C(=O)N[C@H](C(=O)NCC(=O)N[C@@H](CC(C)C)C(=O)N[C@H](C(=O)N[C@@H](CCCNC(=N)N)C(N)=O)[C@@H](C)O)[C@@H](C)CC)C(C)C) [Compound 174]
2.6 µM | 0.41 µM | WNLVRIGLLR (also: further groups not given here, Structure printed only as a drawing) [Compound 147]
12 µM | 50 µM | Ac-MDSFPGWNLVRIGLLR-NH2 [Compound 153]
43 µM | 14 µM | Pentanoyl-WNLVRIGLLR [Compound 152]
22 µM | 8.2 µM | WNLVRIGLLR (also: further groups not given here, Structure printed only as a drawing) [Compound 150]
31 µM | 11 µM | Pentanoyl-[Trp(6-Cl)]NLVRIGLTR-NH2 (SMILES CCCCC(=O)N[C@@H](Cc1c[nH]c2cc(Cl)ccc12)C(=O)N[C@@H](CC(N)=O)C(=O)N[C@@H](CC(C)C)C(=O)N[C@H](C(=O)N[C@@H](CCCNC(=N)N)C(=O)N[C@H](C(=O)NCC(=O)N[C@@H](CC(C)C)C(=O)N[C@H](C(=O)N[C@@H](CCCNC(=N)N)C(N)=O)[C@@H](C)O)[C@@H](C)CC)C(C)C) [Compound 186]
≥ 50 µM | 39 µM | Pentanoyl-[Trp(6-Me)]NLVRIGLTR-NH2 (SMILES CCCCC(=O)N[C@@H](Cc1c[nH]c2cc(C)ccc12)C(=O)N[C@@H](CC(N)=O)C(=O)N[C@@H](CC(C)C)C(=O)N[C@H](C(=O)N[C@@H](CCCNC(=N)N)C(=O)N[C@H](C(=O)NCC(=O)N[C@@H](CC(C)C)C(=O)N[C@H](C(=O)N[C@@H](CCCNC(=N)N)C(N)=O)[C@@H](C)O)[C@@H](C)CC)C(C)C) [Compound 175]
11 µM | 50 µM | Ac-ESYPGWNLVRIGLLR-NH2 [Compound 156]
11 µM | 8.9 µM | WNLVRIGLLR (also: further groups not given here, Structure printed only as a drawing) [Compound 149]
≥ 50 µM | 1.3 µM | Pentanoyl-WNLV[hArg]IGLLR-NH2 (also called n-BuC(O)-WNLV(homoR)IGLLR-NH2) [Compound 191]
6.9 µM | 2.5 µM | WNLVRIGLLR (also: further groups not given here, Structure printed only as a drawing) [Compound 151]
26 µM | 36 µM | Pentanoyl-[Trp(6-Br)]NLVRIGLTR-NH2 (SMILES CCCCC(=O)N[C@@H](Cc1c[nH]c2cc(Br)ccc12)C(=O)N[C@@H](CC(N)=O)C(=O)N[C@@H](CC(C)C)C(=O)N[C@H](C(=O)N[C@@H](CCCNC(=N)N)C(=O)N[C@H](C(=O)NCC(=O)N[C@@H](CC(C)C)C(=O)N[C@H](C(=O)N[C@@H](CCCNC(=N)N)C(N)=O)[C@@H](C)O)[C@@H](C)CC)C(C)C) [Compound 187]
19 µM | 11 µM | WNLVRIGLLR (also: further groups not given here, Structure printed only as a drawing) [Compound 148]
